T1: EsCas13d, nuclease-dead (Eubacterium siraeum, UniProt B0MS50, R295A;H300A;R849A;H854A)
T1 sequence: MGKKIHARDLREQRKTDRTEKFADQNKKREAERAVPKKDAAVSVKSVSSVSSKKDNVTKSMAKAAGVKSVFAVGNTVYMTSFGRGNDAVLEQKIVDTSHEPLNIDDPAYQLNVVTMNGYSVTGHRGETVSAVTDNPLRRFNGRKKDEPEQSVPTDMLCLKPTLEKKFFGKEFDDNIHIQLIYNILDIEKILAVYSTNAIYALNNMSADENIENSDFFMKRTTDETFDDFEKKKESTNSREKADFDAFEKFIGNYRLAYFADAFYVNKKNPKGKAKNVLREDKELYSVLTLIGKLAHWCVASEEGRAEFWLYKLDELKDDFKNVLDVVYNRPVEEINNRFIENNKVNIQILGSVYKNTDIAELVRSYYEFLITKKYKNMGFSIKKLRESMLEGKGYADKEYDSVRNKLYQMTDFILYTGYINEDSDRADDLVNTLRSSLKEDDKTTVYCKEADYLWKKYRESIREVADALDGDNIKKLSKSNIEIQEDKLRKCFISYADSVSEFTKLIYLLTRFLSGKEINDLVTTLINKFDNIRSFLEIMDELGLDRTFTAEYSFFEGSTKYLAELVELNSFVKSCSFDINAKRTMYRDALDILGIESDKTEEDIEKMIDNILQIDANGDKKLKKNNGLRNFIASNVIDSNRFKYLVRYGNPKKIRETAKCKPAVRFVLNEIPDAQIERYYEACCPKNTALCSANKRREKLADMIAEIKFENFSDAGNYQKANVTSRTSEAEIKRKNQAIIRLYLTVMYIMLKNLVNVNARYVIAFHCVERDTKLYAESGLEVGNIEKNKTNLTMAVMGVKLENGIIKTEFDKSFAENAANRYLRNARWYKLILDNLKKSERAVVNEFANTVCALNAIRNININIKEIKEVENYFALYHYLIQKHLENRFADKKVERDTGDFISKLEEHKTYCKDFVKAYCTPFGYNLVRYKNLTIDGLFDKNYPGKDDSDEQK

B1: target 2 MT 5'PFS UGA 3'PFS AAC (mixed)
RNA 1: CACCCGUGCAAAAUUGCAGGGGUCUAAAACCUUCUCCAAAUUGUUUCAUCCU
RNA 2: GGGAAUGGAUCCACAUCUACGAAUUCUGAAGGAUGAAACAAUUUGGAGAAGAACAGAUCGGAAGAGCACACGU
B2: target 2 MT 5'PFS UGA 3'PFS AAA (mixed)
RNA 1: CACCCGUGCAAAAUUGCAGGGGUCUAAAACCUUCUCCAAAUUGUUUCAUCCU
RNA 2: GGGAAUGGAUCCACAUCUACGAAUUCUGAAGGAUGAAACAAUUUGGAGAAGAAAAGAUCGGAAGAGCACACGU
B3: target 2 MT 5'PFS UCA 3'PFS UAC (mixed)
RNA 1: CACCCGUGCAAAAUUGCAGGGGUCUAAAACCUUCUCCAAAUUGUUUCAUCCU
RNA 2: GGGAAUGGAUCCACAUCUACGAAUUCUCAAGGAUGAAACAAUUUGGAGAAGUACAGAUCGGAAGAGCACACGU
B4: target 2 MT 5'PFS CAA 3'PFS CUA (mixed)
RNA 1: CACCCGUGCAAAAUUGCAGGGGUCUAAAACCUUCUCCAAAUUGUUUCAUCCU
RNA 2: GGGAAUGGAUCCACAUCUACGAAUUCCAAAGGAUGAAACAAUUUGGAGAAGCUAAGAUCGGAAGAGCACACGU
B5: target 2 MT 5'PFS CAA 3'PFS CUC (mixed)
RNA 1: CACCCGUGCAAAAUUGCAGGGGUCUAAAACCUUCUCCAAAUUGUUUCAUCCU
RNA 2: GGGAAUGGAUCCACAUCUACGAAUUCCAAAGGAUGAAACAAUUUGGAGAAGCUCAGAUCGGAAGAGCACACGU
B6: target 2 MT 5'PFS UCA 3'PFS UAG (mixed)
RNA 1: CACCCGUGCAAAAUUGCAGGGGUCUAAAACCUUCUCCAAAUUGUUUCAUCCU
RNA 2: GGGAAUGGAUCCACAUCUACGAAUUCUCAAGGAUGAAACAAUUUGGAGAAGUAGAGAUCGGAAGAGCACACGU
B7: target 2 MT 5'PFS AAA 3'PFS ACA (mixed)
RNA 1: CACCCGUGCAAAAUUGCAGGGGUCUAAAACCUUCUCCAAAUUGUUUCAUCCU
RNA 2: GGGAAUGGAUCCACAUCUACGAAUUCAAAAGGAUGAAACAAUUUGGAGAAGACAAGAUCGGAAGAGCACACGU
B8: target 2 MT 5'PFS GGC 3'PFS CUG (mixed)
RNA 1: CACCCGUGCAAAAUUGCAGGGGUCUAAAACCUUCUCCAAAUUGUUUCAUCCU
RNA 2: GGGAAUGGAUCCACAUCUACGAAUUCGGCAGGAUGAAACAAUUUGGAGAAGCUGAGAUCGGAAGAGCACACGU
B9: target 2 MT 5'PFS GGC 3'PFS CUA (mixed)
RNA 1: CACCCGUGCAAAAUUGCAGGGGUCUAAAACCUUCUCCAAAUUGUUUCAUCCU
RNA 2: GGGAAUGGAUCCACAUCUACGAAUUCGGCAGGAUGAAACAAUUUGGAGAAGCUAAGAUCGGAAGAGCACACGU
B10: target 2 MT 5'PFS GGC 3'PFS CUC (mixed)
RNA 1: CACCCGUGCAAAAUUGCAGGGGUCUAAAACCUUCUCCAAAUUGUUUCAUCCU
RNA 2: GGGAAUGGAUCCACAUCUACGAAUUCGGCAGGAUGAAACAAUUUGGAGAAGCUCAGAUCGGAAGAGCACACGU
B11: target 1 insU 3' of 12,insU 3' of 1 (mixed)
RNA 1: CACCCGUGCAAAAAUGCAGGGGUCUAAAACUGAGCGGAUAACCUCUCUAUGG
RNA 2: GGGAAUGGAUCCACAUCUACGAAUUCGUACCAUAGAGAGGUUUAUCCGCUCAUCCGAGAUCGGAAGAGCACACGU
B12: target 2 MT 5'PFS AAA 3'PFS ACC (mixed)
RNA 1: CACCCGUGCAAAAUUGCAGGGGUCUAAAACCUUCUCCAAAUUGUUUCAUCCU
RNA 2: GGGAAUGGAUCCACAUCUACGAAUUCAAAAGGAUGAAACAAUUUGGAGAAGACCAGAUCGGAAGAGCACACGU
B13: target 2 MT 5'PFS GGC 3'PFS CUU (mixed)
RNA 1: CACCCGUGCAAAAUUGCAGGGGUCUAAAACCUUCUCCAAAUUGUUUCAUCCU
RNA 2: GGGAAUGGAUCCACAUCUACGAAUUCGGCAGGAUGAAACAAUUUGGAGAAGCUUAGAUCGGAAGAGCACACGU
B14: target 2 MT 5'PFS UAG 3'PFS CAC (mixed)
RNA 1: CACCCGUGCAAAAUUGCAGGGGUCUAAAACCUUCUCCAAAUUGUUUCAUCCU
RNA 2: GGGAAUGGAUCCACAUCUACGAAUUCUAGAGGAUGAAACAAUUUGGAGAAGCACAGAUCGGAAGAGCACACGU
B15: target 2 MT 5'PFS UGA 3'PFS CCG (mixed)
RNA 1: CACCCGUGCAAAAUUGCAGGGGUCUAAAACCUUCUCCAAAUUGUUUCAUCCU
RNA 2: GGGAAUGGAUCCACAUCUACGAAUUCUGAAGGAUGAAACAAUUUGGAGAAGCCGAGAUCGGAAGAGCACACGU
B16: target 2 MT 5'PFS UGA 3'PFS CCA (mixed)
RNA 1: CACCCGUGCAAAAUUGCAGGGGUCUAAAACCUUCUCCAAAUUGUUUCAUCCU
RNA 2: GGGAAUGGAUCCACAUCUACGAAUUCUGAAGGAUGAAACAAUUUGGAGAAGCCAAGAUCGGAAGAGCACACGU
B17: target 2 MT 5'PFS GGG 3'PFS ACC (mixed)
RNA 1: CACCCGUGCAAAAUUGCAGGGGUCUAAAACCUUCUCCAAAUUGUUUCAUCCU
RNA 2: GGGAAUGGAUCCACAUCUACGAAUUCGGGAGGAUGAAACAAUUUGGAGAAGACCAGAUCGGAAGAGCACACGU
B18: target 2 MT 5'PFS GGG 3'PFS ACA (mixed)
RNA 1: CACCCGUGCAAAAUUGCAGGGGUCUAAAACCUUCUCCAAAUUGUUUCAUCCU
RNA 2: GGGAAUGGAUCCACAUCUACGAAUUCGGGAGGAUGAAACAAUUUGGAGAAGACAAGAUCGGAAGAGCACACGU
B19: target 2 MT 5'PFS UUA 3'PFS CAU (mixed)
RNA 1: CACCCGUGCAAAAUUGCAGGGGUCUAAAACCUUCUCCAAAUUGUUUCAUCCU
RNA 2: GGGAAUGGAUCCACAUCUACGAAUUCUUAAGGAUGAAACAAUUUGGAGAAGCAUAGAUCGGAAGAGCACACGU
B20: target 2 MT 5'PFS GGG 3'PFS ACG (mixed)
RNA 1: CACCCGUGCAAAAUUGCAGGGGUCUAAAACCUUCUCCAAAUUGUUUCAUCCU
RNA 2: GGGAAUGGAUCCACAUCUACGAAUUCGGGAGGAUGAAACAAUUUGGAGAAGACGAGAUCGGAAGAGCACACGU
B21: target 2 MT 5'PFS CGU 3'PFS ACG (mixed)
RNA 1: CACCCGUGCAAAAUUGCAGGGGUCUAAAACCUUCUCCAAAUUGUUUCAUCCU
RNA 2: GGGAAUGGAUCCACAUCUACGAAUUCCGUAGGAUGAAACAAUUUGGAGAAGACGAGAUCGGAAGAGCACACGU
B22: target 1 C6U,A16G (mixed)
RNA 1: CACCCGUGCAAAAAUGCAGGGGUCUAAAACUGAGCGGAUAACCUCUCUAUGG
RNA 2: GGGAAUGGAUCCACAUCUACGAAUUCGUACCAUAGGGAGGUUAUCUGCUCACCGAGAUCGGAAGAGCACACGU
B23: target 2 MT 5'PFS UUA 3'PFS CAG (mixed)
RNA 1: CACCCGUGCAAAAUUGCAGGGGUCUAAAACCUUCUCCAAAUUGUUUCAUCCU
RNA 2: GGGAAUGGAUCCACAUCUACGAAUUCUUAAGGAUGAAACAAUUUGGAGAAGCAGAGAUCGGAAGAGCACACGU
B24: target 2 MT 5'PFS UUA 3'PFS CAC (mixed)
RNA 1: CACCCGUGCAAAAUUGCAGGGGUCUAAAACCUUCUCCAAAUUGUUUCAUCCU
RNA 2: GGGAAUGGAUCCACAUCUACGAAUUCUUAAGGAUGAAACAAUUUGGAGAAGCACAGAUCGGAAGAGCACACGU
B25: target 2 MT 5'PFS UUA 3'PFS CAA (mixed)
RNA 1: CACCCGUGCAAAAUUGCAGGGGUCUAAAACCUUCUCCAAAUUGUUUCAUCCU
RNA 2: GGGAAUGGAUCCACAUCUACGAAUUCUUAAGGAUGAAACAAUUUGGAGAAGCAAAGAUCGGAAGAGCACACGU
B26: target 2 MT 5'PFS GGG 3'PFS ACU (mixed)
RNA 1: CACCCGUGCAAAAUUGCAGGGGUCUAAAACCUUCUCCAAAUUGUUUCAUCCU
RNA 2: GGGAAUGGAUCCACAUCUACGAAUUCGGGAGGAUGAAACAAUUUGGAGAAGACUAGAUCGGAAGAGCACACGU
B27: target 2 MT 5'PFS CGU 3'PFS ACU (mixed)
RNA 1: CACCCGUGCAAAAUUGCAGGGGUCUAAAACCUUCUCCAAAUUGUUUCAUCCU
RNA 2: GGGAAUGGAUCCACAUCUACGAAUUCCGUAGGAUGAAACAAUUUGGAGAAGACUAGAUCGGAAGAGCACACGU
B28: target 2 MT 5'PFS ACC 3'PFS UGU (mixed)
RNA 1: CACCCGUGCAAAAUUGCAGGGGUCUAAAACCUUCUCCAAAUUGUUUCAUCCU
RNA 2: GGGAAUGGAUCCACAUCUACGAAUUCACCAGGAUGAAACAAUUUGGAGAAGUGUAGAUCGGAAGAGCACACGU

Each binder was assayed against T1, EsCas13d, nuclease-dead (assay: crRNA (strand 1, pre-loaded); Mg2+; 40 mM Tris-HCl pH 7.5, 150 mM NaCl, 6 mM MgCl2, 1 mM DTT, 0.1% Tween-20, 0.2 mg/ml BSA; 25 C; 10 min per concentration, then washed). Settings: tags: His6-TwinStrep-SUMO cleaved; N-terminal SNAP kept (SNAP-Surface 488); label: 3' end held by stalled T7 RNA polymerase.

How did the Kd turn out when B1 was run?
Its Kd is 10.1 ± 2.4 nM.

B2 was tested. Which Kd did it give?
The Kd was 9 ± 2.9 nM.

How did the Kd turn out when B3 was run?
The Kd was 5.7 ± 0.9 nM.

How did the Kd turn out when B4 was run?
The Kd was ~5 nM.

How did the Kd turn out when B5 was run?
The Kd was 5.3 ± 2.1 nM.

B6 was tested. Which Kd did it give?
The Kd was 3.9 ± 0.5 nM.

B7 was tested. Which Kd did it give?
Its Kd is 7.8 ± 2.2 nM.

With B8 as the binder, how does the Kd read?
Its Kd is 12.9 ± 1.3 nM.

How did the Kd turn out when B9 was run?
The Kd was 12 ± 1.9 nM.

B10 was tested. Which Kd did it give?
Its Kd is 13.2 ± 1.2 nM.

For B11, which Kd is on record?
Its Kd is 8.23 ± 0.33 nM.

How did the Kd turn out when B12 was run?
Its Kd is 9.2 ± 2.8 nM.

How did the Kd turn out when B13 was run?
The Kd was 17.6 ± 1.8 nM.

Which Kd does the source give for B14 here?
Its Kd is 2.69 ± 0.34 nM.

How did the Kd turn out when B15 was run?
The Kd was 9.2 ± 1 nM.

For B16, which Kd is on record?
The Kd was 15.6 ± 2.8 nM.

How did the Kd turn out when B17 was run?
Its Kd is 22 ± 4 nM.

How did the Kd turn out when B18 was run?
Its Kd is 9.4 ± 0.8 nM.

With B19 as the binder, how does the Kd read?
Its Kd is 14.3 ± 1.3 nM.

How did the Kd turn out when B20 was run?
The Kd was 10.4 ± 0.6 nM.

How did the Kd turn out when B21 was run?
The Kd was 21 ± 5 nM.

With B22 as the binder, how does the Kd read?
The Kd was 31.9 ± 2.2 nM.

With B23 as the binder, how does the Kd read?
Its Kd is 18.5 ± 1.9 nM.

With B24 as the binder, how does the Kd read?
The Kd was 30 ± 7 nM.

Which Kd does the source give for B25 here?
Its Kd is 14.4 ± 2.6 nM.

How did the Kd turn out when B26 was run?
The Kd was 9.3 ± 0.4 nM.

Which Kd does the source give for B27 here?
Its Kd is 23 ± 5 nM.

For B28, which Kd is on record?
Its Kd is 18 ± 6 nM.
